Data from US12624123B2, “Compositions and methods for reducing off-target toxicity of antibody drug conjugates” (The Research Foundation for The State University of New York, priority 2019, dated 2026).
Where “and” joins values, the source holds several entries; their conditions need not be identical. Identical values can stand only once. Entries after “also recorded” stand apart in the source; their conditions may differ.

Key:
MOLM-14 cells = assay: MTT assay with DMFH1 in AML cell line MOLM-14; settings: MOLM-14, 48-hour exposure, 10 μM DMFH1
Protocol: (§1) MTT Cell based assay with DMFH1 in AML cell lines. Cell cytotoxicity of DM4 on MOLM-14, KG-1, Kasumi-3, MV-4-11 cells with and without 10 μM of DMFH1 sdAb over a 48-hour exposure periods.

KG-1 cells = assay: MTT assay with DMFH1 in AML cell line KG-1; settings: KG-1, 48-hour exposure, 10 μM DMFH1
Protocol: as §1

[1] = Competitive ELISA with free DM4; type: binding
Protocol: To determine the binding affinity of the anti-DM4 sdAbs to DM4-conjugates and free DM4, indirect ELISA and competitive ELISA were employed. Briefly, ELISA plate were coated overnight with 100 μL of neutravidin at different concentration ranging from 1 μg/mL to 10 μg/mL. After blocking with 200 μL of 2% skimmed milk-PBST for 1 h, 100 μL of 1 μM biotin-DM4 solution was added into each well and incubated for 30 min, then 100 μL of purified anti-DM4 sdAb solution at concentration ranging from 0.1 nM to 1 μM was added and incubated for 1 h. Bound sdAbs were detected with HRP conjugated anti-His antibody and TMB substrate. After the linear range of binding was determined via the indirect ELISA, a concentration of anti-DM4 sdAb near the IC50 of binding was selected to proceed with competitive ELISA. For the competitive ELISA, anti-DM4 sdAb concentration was held constant as determined from the indirect ELISA and incubated with increasing concentration of DM4 ranging from 0.1 nM to 1 μM.

MV-4-11 cells = assay: MTT assay with DMFH1 in AML cell line MV-4-11; settings: MV-4-11, 48-hour exposure, 10 μM DMFH1
Protocol: as §1

SK-BR-3 cells [2] = assay: MTT cytotoxicity assay in SK-BR-3 cells; type: cell-based; settings: 24 h exposure, 10 μM sdAb
Protocol: Positive clone sdAbs' DNA in pComb3XSS plasmid was isolated and transferred into pET-22b expression vector in SHuffle cells for expression. SK-BR-3 cells were used to test the anti-DM4 sdAbs effect on DM4 cytotoxicity. Briefly, 2,500 cells/well were seeded into a 96-well plate and allowed to adhere for 24 h before cell culture media was aspirated and replaced with 100 μL of fresh media solution containing with or without 10 μM of anti-DM4 sdAb and a range of DM4 concentration for another 24 h exposure period. The cells were then washed 2 times before replacing with fresh media and allowed to grow for additional 72 h.

SK-BR-3 cells [3] = assay: MTT cytotoxicity assay in SK-BR-3 cells; type: cell-based; settings: 10 μM DMFH1
Kasumi-3 cells = assay: MTT assay with DMFH1 in AML cell line Kasumi-3; settings: Kasumi-3, 48-hour exposure, 10 μM DMFH1
Protocol: as §1

B1: DMFH1 (protein)
VHH: QVQLQESGGGLVQPGGSLRLSCAASGSIFGISYMGWYRQAPGKQREPVAMITSGGSTYYADSVKGRVTISRDNAKKTVYLQMNSLRPEDASTYYCAAGCYRSDSPNRYDYWGQGTQVTVSS
modifications: DMFH1
fold shift of DM4 IC50 (MOLM-14 cells): 60.7 fold | fold shift of DM4 IC50 (KG-1 cells): 57.2 fold | Kd ([1]; free DM4, read-out: Estimated KD): 11 nM and 10.5 nM | IC50 ([1]; read-out: Estimated binding affinity IC50 to free DM4): 11 nM | fold shift of DM4 IC50 (MV-4-11 cells): 50.9 fold | Fold shifted (DM4 IC50) (SK-BR-3 cells [2]): 254 fold and 250.5 fold | effect on Trastuzumab Emtansine (T-DM1) cytotoxicity (SK-BR-3 cells [3]): did not alter the cytotoxicity; also recorded: did not change T-DM1 cytotoxicity significantly | fold shift of DM1 IC50 (SK-BR-3 cells [3]; 24 h): 85.6 fold | fold shift of DM4 IC50 (Kasumi-3 cells): 38.3 fold
